Data: patent US20080096809A1

Molecular target: Tar-1 all-L NBD peptide (Escherichia coli)
Assay: FRET in PE/PG (7:3 w/w) SUV, NBD donor and rhodamine-TAMRA acceptor, acceptor-to-lipid ratio 1:7500

B1: Tar-1 diastereomeric rhodamine peptide (peptide)
peptide: KKKMVLGVFALLQLISGSLKK
modifications: not checked
- energy transfer: 30%
